Results as given in paper doi:10.1101/2022.07.07.22277364.

How the values were obtained:
Experiment in all cases: BLI
[1] = target: human ACE2 polymorphism K26R (rs4646116) (human) (UniProt Q9BYF1)
[2] = target: human ACE2 polymorphism S19P (rs73635825) (human) (UniProt Q9BYF1)
[3] = target: truncated human ACE2 (residues 19-613 with a C-terminal AviTag and 6xHis-tag), biotinylated (human) (UniProt Q9BYF1)

Row | Substance | Kd [1] | Kd [2] | t1/2 [3]
1 | SARS-CoV-2 Omicron BA.2 RBD (from UniProt P0DTC2) (domain or fragment) | 5.18 nM | 4.97 nM | 2.7 min
2 | SARS-CoV-2 RBD Alpha (B.1.1.7), N501Y (from UniProt P0DTC2) (domain or fragment) |  |  | 5.49 min
3 | SARS-CoV-2 RBD Beta (B.1.351) (from UniProt P0DTC2) (domain or fragment) |  |  | 2.75 min
4 | SARS-CoV-2 RBD Gamma (P.1) (from UniProt P0DTC2) (domain or fragment) |  |  | 3.58 min
5 | SARS-CoV-2 ancestral RBD recombinant protein (from UniProt P0DTC2) (domain or fragment) |  |  | 1.39 min
